One assay deals with T1, human 4Ig-B7-H3 (human, UniProt Q5ZPR3 29-534).
T1 construct: whole, on cells; also called 4Ig-hB7-H3; Raji-4IgB7-H3
T1 sequence (looked up): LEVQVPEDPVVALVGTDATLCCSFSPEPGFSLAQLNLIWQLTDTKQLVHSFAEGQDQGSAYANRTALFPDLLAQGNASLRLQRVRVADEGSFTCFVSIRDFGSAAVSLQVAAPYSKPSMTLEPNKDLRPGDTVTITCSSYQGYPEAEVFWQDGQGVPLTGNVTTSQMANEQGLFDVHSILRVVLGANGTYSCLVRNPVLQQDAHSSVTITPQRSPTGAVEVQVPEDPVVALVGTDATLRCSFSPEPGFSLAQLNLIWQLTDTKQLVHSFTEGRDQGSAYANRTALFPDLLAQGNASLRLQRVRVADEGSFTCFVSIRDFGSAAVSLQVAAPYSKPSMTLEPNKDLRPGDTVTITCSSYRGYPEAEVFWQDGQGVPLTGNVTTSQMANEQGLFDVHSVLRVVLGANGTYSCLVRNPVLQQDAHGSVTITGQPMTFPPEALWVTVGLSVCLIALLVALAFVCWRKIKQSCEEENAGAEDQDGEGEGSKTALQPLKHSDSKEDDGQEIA
Nature of the assay: flow cytometry on Raji clones expressing 4Ig-hB7-H3.

The target of the next assay is T2, murine B7-H3 (mouse, UniProt Q8VE98 29-316).
T2 construct: whole, on cells; also called mB7-H3; mouse B7-H3
T2 sequence (looked up): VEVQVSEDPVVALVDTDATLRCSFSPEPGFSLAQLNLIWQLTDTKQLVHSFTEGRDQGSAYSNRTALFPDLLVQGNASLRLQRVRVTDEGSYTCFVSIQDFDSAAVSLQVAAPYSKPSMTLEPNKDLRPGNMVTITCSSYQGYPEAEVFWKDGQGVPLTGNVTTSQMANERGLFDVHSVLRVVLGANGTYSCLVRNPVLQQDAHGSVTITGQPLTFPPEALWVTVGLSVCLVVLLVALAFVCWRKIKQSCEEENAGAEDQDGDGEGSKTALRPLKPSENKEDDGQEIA
In words: flow cytometry on Raji clones expressing mB7-H3. In general terms: A flow cytometer gives signals particle by particle.

B1: anti-B7-H3 mAb 376.96 (antibody, V domains shown)
VH: EVQLVESGGGLVKPGGSLKLSCEASRFTFSSYAMSWVRQTPEKRLEWVAAISGGGRYTYYPDSMKGRFTISRDNAKNFLYLQMSSLRSEDTAMYYCARHYDGYLDYWGQGTTLTVSS
VL: DIVMTQSHKFMSTSIGARVSITCKASQDVRTAVAWYQQKPGQSPKLLIYSASYRYTGVPDRFTGSGSGTDFTFTISSVQAEDLAVYYCQQHYGTPPWTFGGGTKLEIK
notes: The residue ranges are my derivation
In the case of B1, the binding result with human 4Ig-B7-H3 and with murine B7-H3 was “binds” each time.

For the origin of these results see patent publication US20180371053A1 (UNIVERSITY OF NORTH CAROLINA AT CHAPEL HILL, published 2018).
